Laboratory results reported in PMC7717565 (PLoS Biology, 2020).
Values belong to the binder of their own block, whether it stands above or below them.

Target: Rabbit skeletal muscle α-actin, filamentous (F-actin) (rabbit, UniProt P68135 1-377)
Details: both partners purified

Kd: 6 ± 0.7 µM
B1: E16R Lifeact–mCherry (peptide)
chain: MGVADLIKKFESISKRE
notes: One of the plasmids 2479, 2556, 2557, 2558; also called E16R Lifeact variant; source: E. coli BL21-CodonPlus(DE3)-RIPL, purified (Protino Ni-IDA resin, dialysis)

Kd: 8.1 ± 0.6 µM
B2: E17K Lifeact–mCherry (peptide)
chain: MGVADLIKKFESISKEK
notes: Lifeact (17 N-terminal residues of yeast ABP140) with E17K, fused to mCherry; One of the plasmids 2479, 2556, 2557, 2558; also called E17K variant of Lifeact; source: E. coli BL21-CodonPlus(DE3)-RIPL, purified (Protino Ni-IDA resin, dialysis)
